# Results: patent US20180111967A1 (PIONEER HI BRED INTERNATIONAL, published 2018)
# B1: PIP-72Aa (Pseudomonas Insecticidal Protein-72Aa) polypeptide of SEQ ID NO: 2 (other)
# chain: MGITVTNNSSNPIEVAINHWGSDGDTSFFSVGNGKQETWDRSDSRGFVLSLKKNGAQHPYYVQASSKIEVDNNAVKDQGRLIEPLS
# modifications: uniformly 15N,13C isotope labeled
# notes: Insecticidal protein from Pseudomonas chlororaphis strain SS143D5; For NMR it was expressed in E. coli with an N-terminal His tag, which was removed by proteolysis, so untagged PIP-72Aa was used; also called IPD072Aa
# Biological target: the molecule itself
# Assay: NMR solution structure (self-association, homodimer)
# Method: For NMR data collection PIP-72Aa (SEQ ID NO: 2) was used at 0.7 mM formulated in 20 mM MES, pH 6.5, 100 mM NaCl, and 5 mM CaCl₂. D₂O and DSS (4,4-dimethyl-4-silapentane-1-sulfonic acid) were added to 10% and 50 μM final concentrations, respectively. This was then loaded into a 4 mm NMR tube (Shigemi). Data collection was at 25° C. on a Bruker 800 MHz spectrometer equipped with a cryo-probe (Monleon, D. et al. 2002, J Struct Funct Genomics 2: 93).
# A NOESY peak list containing expected intra-residue, sequential and α-helical medium range NOE peaks was initially generated and manually edited by visual inspection of the simultaneous NOESY (100 ms mixing time) and 13C-edited aromatic NOESY (100 ms mixing time) spectra. NOEs were assigned using matching tolerances of 0.030, 0.025 and 0.40 ppm for indirect 1H, direct 1H and heavy atom 13C/15N, respectively. Subsequent manual peak picking was used to identify remaining, primarily long-range NOEs. In addition, backbone dihedral angle constraints were derived from chemical shifts (Shen, Y. et al. 2009 J Biomol NMR 44:213) for residues located in well-defined secondary structure elements. The initial structure was refined in explicit solvent using standard methods (Linge, J. P. et al. 2003 Proteins-Structure Function and Bioinformatics 50:496).
protein,measurement,value
B1,binding result,binds
